Source: patent US6623738 (University of California, dated 2003)
“And” between values parts separate entries of the source, which are not always exact repeats. Equal values may be shown once. Each block holds one binder with its values, some of them ahead of it.

B2: rat semaphorin receptor 1 (rSR1), full length, expressed on cells (receptor)
chain: FRSDKCGGTIKIENPGYLTSPGYPHSYHPSEKCEWLIQAPEPYQRIMINFNPHFDLEDRDCKYDYVEVIDGENEGGRLWGKFCGKIAPSPVVSSGPFLFIKFVSDYETHGAGFSIRYEIFKRGPECSQNYTAPTGVIKSPGFPEKYPNSLECTYIIFAPKMSEIILEFESFDLEQDSNPPGGMFCRYDRLEIWDGFPEVGPHIGRYCGQKTPGRIRSSSGILSMVFYTDSAIAKEGFSANYSVLQSSISEDFKCMEALGMESGEIHSDQITASSQYGTNWSVERSRLNYPENGWTPGEDSYREWIQVDLGLLRFVTAVGTQGAISKETKKKYYVKTYRVDISSNGEDWITLKEGNKAIIFQGNTNPTDVVFGVFPKPLITRFVRIKPASWETGISMRFEVYGCKITDYPCSGMLGMVSGLISDSQITASNQGDRNWMPENIRLVTSRTGWALPPSPHPYINEWLQVDLGDEKIVRGVIIQGGKHRENKVFMRKFKIAYSNNGSDWKMIMDDSKRKAKSFEGNNNYDTPELRAFTPLSTRFIRIYPERATHSGLGLRMELLGCEVEVPTAGPTTPNGNPVDECDDDQANCHSGTGDDFQLTGGTTVLATEKPTIIDSTIQSEFPTYGFNCEFGWGSHKTFCHWEHDSHAQLRWRVLTSKTGPIQDHTGDGNFIYSQADENQKGKVARLVSPVVYSQSSAHCMTFWYHMSGSHVGTLRVKLHYQKPEEYDQLVWMVVGHQGDHWKEGRVLLHKSLKLYQVIFEGEIGKGNLGGIAVDDISINNHIPQEDCAKPTDLDKKNTEIKIDETGSTPGYEEGKGDKNISRKPGNVLKTLDPILITIIAMSALGVLLGAVCGVVLYCACWHNGMSERNLSALENYNFELVDGVKLKKDKLNPHSNYSEA
notes: also called rat SR1; p28

What was measured:
[1] = target: B2; assay: equilibrium binding of AP fusion to 293-EBNA cells stably expressing rat SR1, Hill fit
[2] = target: SemaIII-AP fusion protein (full-length Sema III fused at its carboxy terminus to alkaline phosphatase); assay: as above
[3] = target: AP fusion protein comprising just the semaphorin domain of SemaIII (AP-S); assay: as above
[4] = target: T1, mouse neuropilin-2(a0), myc-tagged, expressed in COS-7 cells (mouse, UniProt O35375 21-931); assay: AP fusion binding to transfected COS cells
T1 construct: also called SR2(a)0; m-npn-2
T1 sequence: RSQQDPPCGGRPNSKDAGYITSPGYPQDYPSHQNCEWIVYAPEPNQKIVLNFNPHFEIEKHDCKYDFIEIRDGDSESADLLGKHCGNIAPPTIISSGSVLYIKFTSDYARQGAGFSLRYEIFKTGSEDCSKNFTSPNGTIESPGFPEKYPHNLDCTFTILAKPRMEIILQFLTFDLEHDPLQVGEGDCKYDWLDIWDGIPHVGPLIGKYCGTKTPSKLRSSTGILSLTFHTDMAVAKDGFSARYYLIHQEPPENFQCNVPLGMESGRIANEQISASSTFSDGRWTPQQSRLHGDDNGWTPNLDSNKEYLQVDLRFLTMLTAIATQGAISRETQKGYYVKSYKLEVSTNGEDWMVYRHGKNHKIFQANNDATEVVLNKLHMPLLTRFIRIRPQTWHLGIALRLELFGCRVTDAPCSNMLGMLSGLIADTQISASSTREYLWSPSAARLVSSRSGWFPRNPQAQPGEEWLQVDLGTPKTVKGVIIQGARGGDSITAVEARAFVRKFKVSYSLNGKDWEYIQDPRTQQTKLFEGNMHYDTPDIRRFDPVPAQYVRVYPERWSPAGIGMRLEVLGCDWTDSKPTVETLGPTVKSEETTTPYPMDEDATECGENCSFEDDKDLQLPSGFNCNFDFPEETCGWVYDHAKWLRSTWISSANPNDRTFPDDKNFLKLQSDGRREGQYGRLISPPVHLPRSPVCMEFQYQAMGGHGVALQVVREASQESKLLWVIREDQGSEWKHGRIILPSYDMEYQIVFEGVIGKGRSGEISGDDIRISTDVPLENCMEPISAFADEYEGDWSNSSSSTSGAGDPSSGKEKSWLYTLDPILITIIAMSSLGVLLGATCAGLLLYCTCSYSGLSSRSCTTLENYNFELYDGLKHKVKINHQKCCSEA

[5] = target: T2, mouse neuropilin-2(a5), myc-tagged, expressed in COS-7 cells (mouse, UniProt O35375 21-931); assay: AP fusion binding to transfected COS cells
T2 construct: also called a5 isoform of neuropilin-2; SR2(a)5
T2 sequence: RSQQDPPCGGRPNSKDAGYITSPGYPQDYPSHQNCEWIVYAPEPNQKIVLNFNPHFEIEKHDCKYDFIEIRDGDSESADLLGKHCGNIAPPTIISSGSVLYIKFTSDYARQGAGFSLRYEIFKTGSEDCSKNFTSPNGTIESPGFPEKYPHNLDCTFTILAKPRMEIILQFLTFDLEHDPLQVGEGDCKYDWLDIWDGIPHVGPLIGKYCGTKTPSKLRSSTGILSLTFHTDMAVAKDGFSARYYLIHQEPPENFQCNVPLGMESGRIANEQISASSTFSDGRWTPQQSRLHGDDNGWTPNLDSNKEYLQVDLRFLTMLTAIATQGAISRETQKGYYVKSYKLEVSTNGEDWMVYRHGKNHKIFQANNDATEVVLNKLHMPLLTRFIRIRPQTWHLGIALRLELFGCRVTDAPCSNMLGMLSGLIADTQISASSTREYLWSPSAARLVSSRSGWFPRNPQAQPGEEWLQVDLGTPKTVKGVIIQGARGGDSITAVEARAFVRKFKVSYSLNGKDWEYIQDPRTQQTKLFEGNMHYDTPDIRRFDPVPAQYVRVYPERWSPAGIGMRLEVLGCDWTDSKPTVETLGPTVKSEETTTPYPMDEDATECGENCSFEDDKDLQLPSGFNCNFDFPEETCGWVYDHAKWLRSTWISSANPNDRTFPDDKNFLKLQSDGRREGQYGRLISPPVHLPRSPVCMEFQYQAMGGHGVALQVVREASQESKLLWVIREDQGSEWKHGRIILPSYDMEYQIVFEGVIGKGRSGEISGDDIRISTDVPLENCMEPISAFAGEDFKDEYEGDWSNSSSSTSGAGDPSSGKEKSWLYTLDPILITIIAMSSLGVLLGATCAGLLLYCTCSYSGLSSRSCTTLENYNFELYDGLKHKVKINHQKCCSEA

[6] = target: T3, mouse neuropilin-2(a22), myc-tagged, expressed in COS-7 cells (mouse, UniProt O35375 21-931); assay: AP fusion binding to transfected COS cells
T3 construct: also called SR2(a)22
T3 sequence: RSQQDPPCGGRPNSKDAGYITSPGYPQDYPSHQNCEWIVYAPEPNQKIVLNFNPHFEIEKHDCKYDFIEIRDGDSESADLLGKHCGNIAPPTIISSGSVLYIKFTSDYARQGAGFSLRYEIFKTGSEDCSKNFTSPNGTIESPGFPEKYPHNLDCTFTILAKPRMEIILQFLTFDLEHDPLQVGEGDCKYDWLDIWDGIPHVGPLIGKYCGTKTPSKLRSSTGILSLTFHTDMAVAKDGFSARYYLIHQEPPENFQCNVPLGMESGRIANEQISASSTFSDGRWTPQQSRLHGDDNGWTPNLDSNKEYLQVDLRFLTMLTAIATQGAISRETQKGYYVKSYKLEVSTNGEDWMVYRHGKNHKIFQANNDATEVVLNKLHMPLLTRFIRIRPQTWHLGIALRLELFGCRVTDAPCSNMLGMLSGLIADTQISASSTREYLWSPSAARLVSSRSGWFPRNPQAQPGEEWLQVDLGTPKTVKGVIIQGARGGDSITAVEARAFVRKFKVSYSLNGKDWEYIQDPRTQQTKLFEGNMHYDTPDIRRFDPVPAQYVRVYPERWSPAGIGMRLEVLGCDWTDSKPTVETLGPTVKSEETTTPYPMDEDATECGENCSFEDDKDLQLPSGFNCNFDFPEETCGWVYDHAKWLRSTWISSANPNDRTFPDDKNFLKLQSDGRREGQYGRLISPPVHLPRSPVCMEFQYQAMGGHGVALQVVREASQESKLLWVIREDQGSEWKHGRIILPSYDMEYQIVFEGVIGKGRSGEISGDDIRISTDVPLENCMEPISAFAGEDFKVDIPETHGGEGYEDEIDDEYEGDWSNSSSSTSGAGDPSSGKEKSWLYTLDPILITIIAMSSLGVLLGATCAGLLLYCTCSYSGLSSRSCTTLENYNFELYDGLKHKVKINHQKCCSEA

Kd [1]: 0.84 nM and 0.0672 µg/mL
B1: AP fusion protein comprising only the C domain of SemaIII (AP-C) (ligand)
chain: IIPVEEENPDFWNREAAEALGAAKKLQPAQTAAKNLIIFLGDGMGVSTVTAARILKGQKKDKLGPEIPLAMDRFPYVALSKTYNVDKHVPDSGATATAYLCGVKGNFQTIGLSAAARFNQCNTTRGNEVISVMNRAKKAGKSVGVVTTTRVQHASPAGTYAHTVNRNWYSDADVPASARQEGCQDIATQLISNMDIDVILGGGRKYMFRMGTPDPEYPDDYSQGGTRLDGKNLVQEWLAKRQGARYVWNRTELMQASLDPSVTHLMGLFEPGDMKYEIHRDSTLDPSLMEMTEAALRLLSRNPRGFFLFVEGGRIDHGHHESRAYRALTETIMFDDAIERAGQLTSEEDTLSLVTADHSHVFSFGGYPLRGSSIFGLAPGKARDRKAYTVLLYGNGPGYVLKDGARPDVTESESGSPEYRQQSAVPLDEETHAGEDVAVFARGPQAHLVHGVQEQTFIAHVMAFAACLEPYTACDLAPPAGTTDAAHPGGFIQTLLKVTLEVIDTEHLEELLHKDDDGDGSKTKEMSNSMTPSQKVWYRDFMQLINHPNLNTMDEFCEQVWKRDRKQRRQRPGHTPGNSNKWKHLQENKK

Binder: B2
Kd [2]: 0.0553 µg/mL and 0.325 nM | Kd [3]: 0.219 µg/mL and 1.45 nM

binding result [4]: no binding | binding result [5]: no binding | binding result [6]: no binding
B3: AP fusion with the ectodomain of Sema VIa (ligand, UniProt O35464 19-649, looked up)
chain: GFPEDSEPISISHGNYTKQYPVFVGHKPGRNTTQRHRLDIQMIMIMNRTLYVAARDHIYTVDIDTSHTEEIYCSKKLTWKSRQADVDTCRMKGKHKDECHNFIKVLLKKNDDTLFVCGTNAFNPSCRNYRVDTLETFGDEFSGMARCPYDAKHANIALFADGKLYSATVTDFLAIDAVIYRSLGDSPTLRTVKHDSKWLKEPYFVQAVDYGDYIYFFFREIAVEYNTMGKVVFPRVAQVCKNDMGGSQRVLEKQWTSFLKARLNCSVPGDSHFYFNILQAVTDVIRINGRDVVLATFSTPYNSIPGSAVCAYDMLDIANVFTGRFKEQKSPDSTWTPVPDERVPKPRPGCCAGSSSLEKYATSNEFPDDTLNFIKTHPLMDEAVPSIINRPWFLRTMVRYRLTKIAVDNAAGPYQNHTVVFLGSEKGIILKFLARIGSSGFLNGSLFLEEMNVYNPEKCSYDGVEDKRIMGMQLDRASGSLYVAFSTCVIKVPLGRCERHGKCKKTCIASRDPYCGWVRESGSCAHLSPLSRLTFEQDIERGNTDGLGDCHNSFVALNGHASSLYPSTTTSDSASRDGYESRGGMLDWNDLLEAPGSTDPLGAVSSHNHQDKKGVIRESYLKSNDQLVPVT
notes: extracellular domain; also called Sema VIa ectodomain; not shown: alkaline phosphatase (AP) reporter
